Article PMC3538678

Legend:
[1] = target: recombinant human laminin-521 (α5β2γ1) (human) (UniProt O15230)
[2] = target: recombinant human laminin-511 (α5β1γ1) (human) (UniProt O15230)
[3] = target: recombinant human laminin-521 (α5β2γ1) (human) (UniProt O15230); remark: listed apart in the source
[4] = target: recombinant human laminin-511 (α5β1γ1) (human) (UniProt O15230); remark: listed apart in the source

adhesion of BE melanoma cells to wells coated with rhLM521 (20 µg/ml), OD [1]: 1.56 OD | adhesion of KG1C glioma cells to wells coated with rhLM521 (20 µg/ml), OD [1]: 1.39 OD | adhesion of MDA-MB-231 breast carcinoma cells to wells coated with rhLM521 (20 µg/ml), OD [1]: 1.85 OD | adhesion of BE melanoma cells to wells coated with rhLM511 (20 µg/ml), OD [2]: 1.65 OD | adhesion of KG1C glioma cells to wells coated with rhLM511 (20 µg/ml), OD [2]: 1.48 OD | adhesion of MDA-MB-231 breast carcinoma cells to wells coated with rhLM511 (20 µg/ml), OD [2]: 1.82 OD | migration of carcinoma cells through membranes coated with rhLM521, cells/field [3]: 198 cells/field | migration of glioma cells through membranes coated with rhLM521, cells/field [3]: 174 cells/field | migration of melanoma cells through membranes coated with rhLM521, cells/field [3]: 203 cells/field | migration of carcinoma cells through membranes coated with rhLM511, cells/field [4]: 190 cells/field | migration of glioma cells through membranes coated with rhLM511, cells/field [4]: 161 cells/field | migration of melanoma cells through membranes coated with rhLM511, cells/field [4]: 88 cells/field
Substance: recombinant human α3β1 integrin (from UniProt P26006 33-1051; P05556 21-728) (receptor)
